{"source": "patent US20240400651A1", "binders": {"B1": {"name": "Mab #25 (antibody, V domains shown)", "VH": "EVQLVESGAEVKKPGESLKISCKGSGYTFTRYWIGWVRQMPGKGLEWMGIIYPGDSDTRYSPSFQGHVTISADKSISTAYLQWNSLKASDTAMYYCARLPQYCSNGVCQRWFDPWGQGTLVTVSS", "VL": "EIVLTQSPSSVSASVGDRVTITCRASQGISSWLAWYQQKPGKAPKLLIYAASSLQSGVPSRFSGSGSGTDFTLTISSLQPEDFATYYCQQGNSFPYTFGQGTNLEIK"}}, "molecular_target": "Spike proteins of the wild-type Wuhan-Hu-1 strain and the D614G, B.1.1.7, B.1.351, P.1, B.1.526 and", "assay": "cell-based or functional assay"}
{"binder": "B1", "values": [{"measurement": "IC50, infectivity assays using pseudoviruses", "result": "0.05 to 0.2", "unit": "µg/mL"}]}
